Reference: patent US20240010721A1 (HARBOUR BIOMED SHANGHAI, published 2024)
Residue numbers refer to the chain shown, from its start. Values belong to the binder of their own block, whether it stands above or below them.

How the values were obtained:
[1] = target: T1, cynomolgus ROR1 (cynoROR1) on CHO-K1 cells (cynomolgus, UniProt A0A2K5WTX7 30-937); assay: FACS, CHO-K1-cynoROR1 cells
T1 construct: whole, on cells; also called CHO-K1-cynoROR1; CHO-K1-cyROR1
Protocol: (§1) The binding properties were characterized by FACS. The recombinant antibodies obtained above were serially diluted to 9 different concentrations and incubated for 1 h, and then determined for the binding ability with HEK293T-hROR1, CHO-K1-cynoROR1 and A549 cell lines (endogenously expressing ROR1), respectively. The secondary antibody was then incubated for 1 h. The results are shown in FIG. 4-6 and Table 7-2 below.

hROR2ECD-his [2] = target: T2, hROR2ECD-his (human, UniProt Q01974 34-403); assay: ELISA, plate coated with hROR2 ECD-his
T2 construct: extracellular domain; bought, Acrobiosystems R02-H52E5; also called huROR2-his
T2 sequence (Q01974 34-403): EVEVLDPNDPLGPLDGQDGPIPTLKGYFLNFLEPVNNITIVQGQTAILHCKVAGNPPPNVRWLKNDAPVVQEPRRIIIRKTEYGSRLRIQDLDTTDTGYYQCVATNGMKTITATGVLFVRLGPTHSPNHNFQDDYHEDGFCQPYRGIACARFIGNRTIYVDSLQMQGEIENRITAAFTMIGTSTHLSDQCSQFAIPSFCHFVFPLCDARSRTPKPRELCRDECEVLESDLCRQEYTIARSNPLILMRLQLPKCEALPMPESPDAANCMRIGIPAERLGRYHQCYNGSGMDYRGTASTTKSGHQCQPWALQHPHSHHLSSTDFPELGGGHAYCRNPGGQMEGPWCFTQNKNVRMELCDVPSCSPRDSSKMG
Protocol: (§2) Screening by ELISA assay: 96-well plates (Corning 9018) were coated with 1 μg/mL hROR1 ECD-his/hROR2 ECD-his/mROR1 ECD-his proteins prepared with PBS in Example 1a above and incubated at 4° C. overnight. The liquid was then discarded, and the plates were washed 3 times with PBST, blocked with 5% milk for 2 h at room temperature, and washed 3 times with PBST. The taken supernatant was added at 100 μL/well, and the plates were incubated at room temperature for 1 h, followed by washing 3 times with PBST. 100 μL/well of secondary antibody (Sigma, Cat#: A8592) was added, the plates were incubated at room temperature for 1 h, and then washed. TMB was then added to the plates at 100 μL/well and incubated for 15 min at room temperature. Thereafter, the reaction was terminated and data were read.
(§3) a. Results of ELISA assay (the ELISA assay was performed according to the same procedures as in Example 2c, except that the added samples were recombinant antibodies and the secondary antibody was a-Fc (Genscript, Cat#: A01854))

Human ROR1-ECD-his = target: T3, Human ROR1-ECD-his (human, UniProt Q01973 30-406); assay: ELISA, plate coated with hROR1 ECD-his
T3 construct: extracellular domain; bought, Acrobiosystems RO1-H522y; also called hROR1-ECD-his; hROR1 ECD-his
T3 sequence (Q01973 30-406): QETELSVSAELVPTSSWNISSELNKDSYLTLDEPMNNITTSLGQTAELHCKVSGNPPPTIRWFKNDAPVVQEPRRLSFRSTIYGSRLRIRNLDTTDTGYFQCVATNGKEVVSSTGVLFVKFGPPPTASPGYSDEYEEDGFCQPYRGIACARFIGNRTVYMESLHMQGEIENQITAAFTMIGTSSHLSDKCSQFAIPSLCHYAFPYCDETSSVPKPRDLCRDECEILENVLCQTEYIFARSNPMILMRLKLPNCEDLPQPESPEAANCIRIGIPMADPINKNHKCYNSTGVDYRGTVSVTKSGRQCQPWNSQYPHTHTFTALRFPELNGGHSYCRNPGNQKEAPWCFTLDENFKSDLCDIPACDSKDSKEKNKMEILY
Protocol: as §2, §3

[3] = target: T4, ROR1 (antigen of the KD determination and of the Octet dissociation measurement) (UniProt Q01973 30-403, limits assumed); assay: method not stated (conventional procedures)
T4 sequence (Q01973 30-403 limits assumed): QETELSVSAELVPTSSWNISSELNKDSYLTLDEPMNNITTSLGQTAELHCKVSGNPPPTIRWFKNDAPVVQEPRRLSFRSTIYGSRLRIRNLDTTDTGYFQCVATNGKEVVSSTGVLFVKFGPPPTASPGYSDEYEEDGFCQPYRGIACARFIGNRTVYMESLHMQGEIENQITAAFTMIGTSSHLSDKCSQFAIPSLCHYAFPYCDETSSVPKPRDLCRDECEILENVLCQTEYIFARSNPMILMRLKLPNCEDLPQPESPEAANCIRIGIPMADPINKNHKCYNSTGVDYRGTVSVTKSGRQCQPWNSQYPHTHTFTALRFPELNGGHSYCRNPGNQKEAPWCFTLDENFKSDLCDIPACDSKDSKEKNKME

[4] = target: T5, human ROR1 (hROR1) on cells (human, UniProt Q01973 30-937); assay: cell-based or functional assay
T5 sequence (Q01973 30-937): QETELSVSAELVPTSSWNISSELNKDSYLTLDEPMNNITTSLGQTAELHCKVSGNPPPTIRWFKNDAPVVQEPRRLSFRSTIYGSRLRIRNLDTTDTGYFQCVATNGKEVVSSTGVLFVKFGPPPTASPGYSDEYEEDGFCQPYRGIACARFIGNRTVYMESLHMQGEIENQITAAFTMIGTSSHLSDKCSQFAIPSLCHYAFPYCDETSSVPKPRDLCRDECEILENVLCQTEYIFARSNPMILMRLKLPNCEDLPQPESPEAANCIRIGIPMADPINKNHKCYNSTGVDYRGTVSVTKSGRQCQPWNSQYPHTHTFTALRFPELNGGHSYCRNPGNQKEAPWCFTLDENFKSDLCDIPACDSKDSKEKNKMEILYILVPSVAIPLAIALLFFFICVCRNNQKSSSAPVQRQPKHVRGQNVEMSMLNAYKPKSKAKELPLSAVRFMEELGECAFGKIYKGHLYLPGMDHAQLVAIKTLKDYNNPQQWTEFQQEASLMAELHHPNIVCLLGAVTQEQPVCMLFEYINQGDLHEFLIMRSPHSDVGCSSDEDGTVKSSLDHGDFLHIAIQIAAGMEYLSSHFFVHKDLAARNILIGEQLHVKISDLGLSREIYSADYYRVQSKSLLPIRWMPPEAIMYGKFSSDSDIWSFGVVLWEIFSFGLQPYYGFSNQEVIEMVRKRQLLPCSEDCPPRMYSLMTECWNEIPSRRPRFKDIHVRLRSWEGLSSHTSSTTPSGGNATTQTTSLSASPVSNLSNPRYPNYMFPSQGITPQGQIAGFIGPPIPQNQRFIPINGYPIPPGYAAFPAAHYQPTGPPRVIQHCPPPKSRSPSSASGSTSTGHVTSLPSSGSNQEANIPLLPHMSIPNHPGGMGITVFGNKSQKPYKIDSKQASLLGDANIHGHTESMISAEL

[5] = target: T5, human ROR1 (hROR1) on cells; assay: FACS, A549 cells
Protocol: as §1

[6] = target: T5, human ROR1 (hROR1) on cells; assay: cell-based or functional assay; remark: listed apart in the source
[7] = target: T5, human ROR1 (hROR1) on cells; assay: FACS, HEK293T-hROR1 cells; cytometer saturated
Protocol: as §1

hROR2ECD-his [8] = target: T2, hROR2ECD-his; assay: ELISA, plate coated with hROR2 ECD-his; remark: listed apart in the source
Protocol: as §2, §3
The corresponding values in the table are the measured median fluorescence intensity (MFI).

[9] = target: T5, human ROR1 (hROR1) on cells; assay: FACS, HEK293T-hROR1 cells
Protocol: as §1

[10] = target: T5, human ROR1 (hROR1) on cells; assay: flow cytometry (FACS) on HEK293T-hROR1 cells, antibody 0.01-100 nM, median fluorescence intensity
Protocol: as §1

[11] = target: T5, human ROR1 (hROR1) on cells; assay: flow cytometry (FACS) on A549 cells (endogenous ROR1), antibody 0.01-100 nM, median fluorescence intensity
Protocol: as §1

[12] = target: T1, cynomolgus ROR1 (cynoROR1) on CHO-K1 …; assay: flow cytometry (FACS) on CHO-K1-cynoROR1 cells, antibody 0.01-100 nM, median fluorescence intensity
Protocol: as §1

[13] = target: T5, human ROR1 (hROR1) on cells; assay: FACS, HEK293T-hROR1 cells; remark: listed apart in the source
[14] = target: T4, ROR1 (antigen of the KD determination …); assay: Octet, antigen form not stated
[15] = target: T5, human ROR1 (hROR1) on cells; assay: FACS, Panc-1 cells

B1: PR001353 (antibody, V domains shown)
VH: QVQLVESGGGVVQPGRSLRLSCVASGFTFSSYGMHWVRQAPGKGLEWVSVAWYDGISKDYADSVKGRFTISRDNSMNTLFLQMNSLRAEDTAVYYCAREQARSFDLWGRGTLVTVSS
VL: not shown
notes: fully human IgG1, kappa
MAX(MFI) [1]: 29000 MFI | ELISA signal (called MFI) (hROR2ECD-his [2]): 0.031 | ELISA signal (called MFI) (Human ROR1-ECD-his): 2.54 | Kd [3]: 2.21 nM | koff [3]: 0.000927 s⁻¹ | kon [3]: 419000 M⁻¹ s⁻¹ | endocytosis EC50(nM) (a-hFc-MMAF killing, CTG luminescence) [4]: 0.149 nM | MAX(MFI) [5]: 4330 MFI | ADCC Cytotoxicity (%), Donor 1, 1 nM [6]: 30.5% | ADCC Cytotoxicity (%), Donor 1, 10 nM [6]: 42.3% | ADCC Cytotoxicity (%), Donor 2, 1 nM [6]: 14.1% | ADCC Cytotoxicity (%), Donor 2, 10 nM [6]: 21.5% | MAX(MFI) [7]: 262000 MFI | binding result (hROR2ECD-his [8]): no binding | fold lower EC50 than reference PR000374 [9]: 10 fold

B3: PR001416 (antibody, human IgG1, kappa, V domains shown)
VH: B1 VH with V23A, S31T, S49A, A51I, I56S, S57D, N74T, M76K, F80Y
VL: DIVMTQSPSTLSASVGDRVTITCRASQTINNWLAWYQQKPGKAPKLLIYKASSLESGVPSRFSGSGSGTEFTLTISSLQPDDFATYYCQQYNSYSPMYTFGQGTKVEIKR
notes: fully human IgG1, kappa
ELISA signal (called MFI) (hROR2ECD-his [2]): 0.0265 | ELISA signal (called MFI) (Human ROR1-ECD-his): 2.45 | Kd [3]: 1.27 nM | koff [3]: 0.000342 s⁻¹ | kon [3]: 270000 M⁻¹ s⁻¹ | EC50 (read off the curve) [10]: ~2 nM | EC50 (read off the curve) [11]: ~0.4 nM | binding result (hROR2ECD-his [8]): no binding | fold lower EC50 than reference PR000374 [9]: 10 fold | EC50 (read off the curve) [12]: ~1 nM

B5: PR001356 (antibody, human IgG1, kappa, V domains shown)
VH: B1 VH with V23A, S49A, I56V, K58E, S75A, M76K, F80Y
VL: B3 VL with T28S, N92K
notes: fully human IgG1, kappa; also called anti-ROR1 1015M2-E6 hIgG1; PR001356(WT)
MFI [13]: 50900 MFI | MAX(MFI) [1]: 29700 MFI | ELISA signal (called MFI) (hROR2ECD-his [2]): 0.0305 | ELISA signal (called MFI) (Human ROR1-ECD-his): 2.38 | Kd [3]: 0.81 nM | koff [3]: 0.000287 s⁻¹ | kon [3]: 354000 M⁻¹ s⁻¹ | Response [14]: 0.617 | koff [14]: 0.000152 s⁻¹ | MAX(MFI) [5]: 4630 MFI | MAX(MFI) [7]: 262000 MFI | binding result (hROR2ECD-his [8]): no binding | fold lower EC50 than reference PR000374 [9]: 10 fold | MFI [15]: 5590 MFI

Now from value to binder, other results behind:

ELISA signal (called MFI) (hROR2ECD-his [2]): 0.025 | ELISA signal (called MFI) (Human ROR1-ECD-his): 2.44 | Kd [3]: 3.01 nM | koff [3]: 0.00117 s⁻¹ | kon [3]: 389000 M⁻¹ s⁻¹ | EC50 (read off the curve) [10]: ~3 nM | EC50 (read off the curve) [11]: ~0.2 nM | binding result (hROR2ECD-his [8]): no binding | fold lower EC50 than reference PR000374 [9]: 10 fold | EC50 (read off the curve) [12]: ~0.7 nM
B2: PR001419 (antibody, V domains shown)
VH: B1 VH with V23A, S49A, V50I, A51I, D59N, N74M, M76N, L79V, F80Y, R98K
VL: not shown
notes: fully human IgG1, kappa

MAX(MFI) [1]: 27200 MFI | ELISA signal (called MFI) (hROR2ECD-his [2]): 0.038 | ELISA signal (called MFI) (Human ROR1-ECD-his): 2.39 | Kd [3]: 2 nM | koff [3]: 0.000637 s⁻¹ | kon [3]: 320000 M⁻¹ s⁻¹ | MAX(MFI) [5]: 3930 MFI | MAX(MFI) [7]: 262000 MFI | binding result (hROR2ECD-his [8]): no binding | fold lower EC50 than reference PR000374 [9]: 10 fold
B4: PR001359 (antibody, human IgG1, kappa, V domains shown)
VH: B1 VH with V23A, S31T, S49A, A51T, I56S, S57D, N74T, M76K, F80Y
VL: B3 VL with T28S, I29V, N92K
notes: fully human IgG1, kappa
ADCC Cytotoxicity (%), Donor 1, 1 nM [6]: 33.7% | ADCC Cytotoxicity (%), Donor 1, 10 nM [6]: 39.5% | ADCC Cytotoxicity (%), Donor 2, 1 nM [6]: 21.9% | ADCC Cytotoxicity (%), Donor 2, 10 nM [6]: 26.1%
